Where “and” joins values, the source holds several entries; their conditions need not be identical. Identical values can stand only once.
Tests used:
[1] = target: CD3 (CD3-TCR complex) on Promega PD1 effector cells (Jurkat T cells) (human); test: cell-based or functional assay
[2] = target: T1, Human CD3 epsilon&CD3 delta Heterodimer Protein (human, UniProt P07766 23-126; P04234 22-105); test: ELISA, CD3 epsilon/delta heterodimer coated at 50 ng/mL, HRP goat anti-human Fc
T1 construct: Bought heterodimer; also called Human CD3 epsilon&CD3 delta Heterodimer蛋白; CD3抗原
T1 sequence (P07766 23-126, stated change not applied, chain 1 of 2): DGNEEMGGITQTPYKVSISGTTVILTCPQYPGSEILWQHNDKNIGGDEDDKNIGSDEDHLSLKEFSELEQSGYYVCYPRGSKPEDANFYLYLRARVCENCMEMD
T1 sequence (P04234 22-105, stated change not applied, chain 2 of 2): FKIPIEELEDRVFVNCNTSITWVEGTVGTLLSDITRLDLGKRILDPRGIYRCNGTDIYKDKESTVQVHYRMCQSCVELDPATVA

MUC17 on LS174T cells [3] = target: T2, MUC17 on LS174T cells (human, UniProt Q685J3 26-4493); test: flow cytometry on LS174T cells, PE goat anti-human Fc
MUC17 on LS174T cells [4] = target: T2, MUC17 on LS174T cells; test: cell-based or functional assay
MUC17-ECD-His蛋白 = target: T3, MUC17-ECD-His蛋白 (human, UniProt Q685J3 26-4393); test: ELISA, MUC17-ECD-His coated at 500 ng/mL, HRP goat anti-human Fc
T3 construct: extracellular domain; Made in HEK-293E; the signal peptide added at the N-terminus is not part of the purified protein; also called MUC17抗原

Binder	EC 50 [1]	binding result [2]	Top [1]	binding result (MUC17 on LS174T cells [3])	IC 50 (CD3+T细胞杀伤LS174T细胞, CellTiter-Glo) (MUC17 on LS174T cells [4]) [nM]	EC 50 (MUC17-ECD-His蛋白) [nM]
anti-MUC17×CD3 BsAb CM5 (bispecific antibody, human IgG1, kappa) heavy: not shown light: QAVVTQEPSLTVSPGGTVTLTCRSSTGAVTTSNYANWVQQKPGQAPRGLIGGTNKRAPGVPARFSGSLLGGKAALTLSGAQPEDEAEYYCALWYSNLWVFGQGTKVEIKRTVAAPSVFIFPPSDEQLKSGTASVVCLLNNFYPREAKVQWKVDNALQSGNSQESVTEQDSKDSTYSLSSTLTLSKADYEKHKVYACEVTHQGLSSPVTKSFNRGEC	0.646 nM	binds	42300	binds		
anti-MUC17×CD3 BsAb CM6 (bispecific antibody, human IgG1, kappa) heavy: not shown light: QAVVTQEPSLTVSPGGTVTLTCRSSTGAVTTSNYANWVQQKPGQAPRGLIGGTNKRAPGVPARFSGSLLGGKAALTLSGAQPEDEAEYYCALWYSNLWVFGQGTKVEIKRTVAAPSVFIFPPSDEQLKSGTASVVCLLNNFYPREAKVQWKVDNALQSGNSQESVTEQDSKDSTYSLSSTLTLSKADYEKHKVYACEVTHQGLSSPVTKSFNRGEC	1.11 nM	binds	45800	binds		
27A3人源化抗体(hu-27A3) (antibody, human IgG1, kappa, V domains shown, Humanized anti-MUC17 IgG1/kappa, made in HEK-293E; also called 抗MUC17的人源化单克隆抗体) VH: QVQLVQSGAEVKKPGASVKVSCKASGYSFTIYWMHWVRQAPGQGLEWIGMSHPSDSESRLNQKFKDRATLTVDKSTSTAYMELSSLRSEDTAVYYCSRPYYGSSAWFADWGQGTLVTVSA VL: DIVMTQSPDSLAVSLGERATINCKSSQSLLNSSNQKNYLAWYQQKPGQSPKLLIYFASTRESGVPDRFSGSGSGTDFTLTISSLQAEDVAVYYCQQHYSFPLTFGAGTKLELRR						0.0893

Continued, values first:

EC 50 [1]	binding result [2]	Top [1]	binding result (MUC17 on LS174T cells [3])	IC 50 (CD3+T细胞杀伤LS174T细胞, CellTiter-Glo) (MUC17 on LS174T cells [4]) [nM]	EC 50 (MUC17-ECD-His蛋白) [nM]	Binder
0.73 nM and 0.624 nM	binds					人源化抗CD3抗体huSP34 (antibody, human IgG1, kappa, V domains shown, Humanized SP34, IgG1/kappa; positive control for the CD3 arm) VH: EVQLVESGGGLVQPGGSLRLSCAASGFTFNTYAMNWVRQAPGKGLEWVARIRSKYNNYATYYADSVKDRFTISRDDSKNTLYLQMNSLRAEDTAVYYCVRHGNFGNSYVSWFAYWGQGTLVTVSS VL: QAVVTQEPSLTVSPGGTVTLTCRSSTGAVTTSNYANWVQQKPGQAPRGLIGGTNKRAPGVPARFSGSLLGGKAALTLSGAQPEDEAEYYCALWYSNLWVFGQGTKVEIKR
1.41 nM	binds	80500		0.28		anti-MUC17×CD3 BsAb CM7 (bispecific antibody, human IgG1, kappa) heavy: not shown light: QAVVTQEPSLTVSPGGTVTLTCRSSTGAVTTSNYANWVQQKPGQAPRGLIGGTNKRAPGVPARFSGSLLGGKAALTLSGAQPEDEAEYYCALWYSNLWVFGQGTKVEIKRTVAAPSVFIFPPSDEQLKSGTASVVCLLNNFYPREAKVQWKVDNALQSGNSQESVTEQDSKDSTYSLSSTLTLSKADYEKHKVYACEVTHQGLSSPVTKSFNRGEC
1.17 nM	binds	76700	binds			anti-MUC17×CD3 BsAb CM8 (bispecific antibody, human IgG1, kappa) heavy: not shown light: QAVVTQEPSLTVSPGGTVTLTCRSSTGAVTTSNYANWVQQKPGQAPRGLIGGTNKRAPGVPARFSGSLLGGKAALTLSGAQPEDEAEYYCALWYSNLWVFGQGTKVEIKRTVAAPSVFIFPPSDEQLKSGTASVVCLLNNFYPREAKVQWKVDNALQSGNSQESVTEQDSKDSTYSLSSTLTLSKADYEKHKVYACEVTHQGLSSPVTKSFNRGEC

From patent CN116284427A (SUNSHINE GUOJIAN PHARMACEUTICAL SHANGHAI CO LTD, dated 2023)
